This series in a line: yeast display, Sf9 membrane polyspecificity reagent, FACS + sequencing; frameworks hold sequencing errors. In a few lines: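 Using colony PCR, genes from sorted yeast display clones were amplified, then sequenced on MiSeq at 2 × 250 and filtered by CDR length. The clones had been stained with 10% biotinylated, detergent-solubilized Sf9 membrane reagent for 1 hour at 4 °C and sorted by FACS into low and high (top ~1%) gates on anti-HA and streptavidin fluorescence. Polyreactivity labels come from the gate of origin.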
In the case of “QVQLQESGGGLVQAGGILRRSCAACGNIFPSAVMGWYRQALGKEREFVATINSGSNTYYADSVKGRFTISRDNAKNTVYLQMNSLKLEDTAVYYCAAYFKLPAWHTYWGQGTQVTVSS”, the “polyreactivity (PSR sort gate)” value is “low polyreactivity”.

“QVQLVESGGGLVQAGGSLRLSCAASGRIFLIYAMGWYRQAPGKDRELVAAISGRGGGTTYYADSVKGRFTISRDNAKITVYLQMNSLKPEATAVYYCAARNGGHKYYYWGQGTQVTVSS”: the “polyreactivity (PSR sort gate)” value is reported as “high polyreactivity”.

As to “QVQLVESGGGLVQAGGSLRLSCAASGSIFWGYAMGWYRQAPGKERELVATISWTGGSTYYADSVKGRFTISRDNAKNTVYLQMNSLKPEDTAVYYGAKVIIHYYYVVNLVDVDYWGQGTQVTVSS”, the “polyreactivity (PSR sort gate)” value is recorded as “low polyreactivity”.

For the sequence “QVQLVESGGGLVQAGGSLRLSCAASGITFRFYAMGWYRQAPGKERELVAVISRGGGTTYYADSVKGRFTISRDNAKNTVYLHMNSLKPEDTAVYYCNAVIAWYRSDEYDYWGQGTQVTVSS”, the “polyreactivity (PSR sort gate)” value was “high polyreactivity”.

With “QVQLVESGGGLVQAGGSLRLSCAASGRTFGYYAMGWYRQAPGKERELVAAISYSSTITYYAGSVKGRFTISRDNAKNTVYLQMNSLKPEDTAVYYCAAYSTRGVEYDYWGQGTQVTVSS”, the “polyreactivity (PSR sort gate)” value is given as “high polyreactivity”.

On to “QVQLVESGGGLVQSGGSLRLSCAASGSTSGTNAMGWYRQAPGKERELVAGISYRGGSTYYADSVKGRFTISRDNAKNTVYLHMNSLKPEDTEVYYCAASRNISYWGQGTQVTVSS”, for which the “polyreactivity (PSR sort gate)” value is listed as “high polyreactivity”.

Consider “QVQLVESGGGLVQEGGSLRLSCAASGSIFFYYAMGWYRQAPGKERELVAAITSSGDSTYYADSVKGRFTISRDNAKNTVYLQMNSLKPVETAVYYCAALYIGYTGYYYWGQGTQVTVSS”, for which the “polyreactivity (PSR sort gate)” value was “low polyreactivity”.

“QVQLVESGGGLVQAGGSLRLSCAASGRTFFVYAMGWYRQAPGKERELVASITLSGGSTYYADSVKGRFTISRDNAKNTVYLQMHSLKPEDTAVYYCAKGWSRDNDREREDEYWGQGTQVTVSS”: the “polyreactivity (PSR sort gate)” value is listed as “low polyreactivity”.

As for “QVQLVESGGGLVQAGGSLRLFCAASGRIFSAYAMGLYRQAPGKERELVAGISSRGGSTYYADSVKGRFTISRDNAKNTVYLQMNSLKPEDTAVYYCAKPYGRRYGRLHDYWGQGTQVTVSS”, the “polyreactivity (PSR sort gate)” value is given as “high polyreactivity”.

Regarding “QDQHVESGGGLVQAGGSLRLSFAASGRIFRYYAMRWYRQAPGKDRELVAAIRWTAGSTYYADSVKVRFTISRDNAKNTVYLQMNSLKPEDPAVYYCATDVWKYGRYEYWVQGTQVTVSS”, the “polyreactivity (PSR sort gate)” value was “low polyreactivity”.

Take “QVQLVESGGGLVQAGGSLRLSCAASGSTFAYNAMGWYRQAPGNERELVAAISFTGDSTYYADSVKGRFTISRDNAKNTVYLQMNSLKPEDTRTSPVLSYDYWGQGTLVTVSS”: the “polyreactivity (PSR sort gate)” value was “low polyreactivity”.

On to “QVQLVESGGGLVQAGGSLRLSCAASGFISVRNAMGWYRQAPGKEREFVAAISGGGGSTYYADSVKGRFTISRDNAKNTVYLQMNSLKPEDTAVYYCNAPRYLYSAGRFNYWGQGTQVTVSS”, for which the “polyreactivity (PSR sort gate)” value is listed as “high polyreactivity”.

Take “QVQLVESGGGLVQAGGSLRLICAASGRIFYGYAMGWSRQAPGKERELVAAIRWSGGRTYYADSVKGRFTISRDNAKNTVYLQMNSLKPEATAVYYCAADYGYRSYVRFLSANYDYWGKGTQVTVSS”: the “polyreactivity (PSR sort gate)” value was “high polyreactivity”.

With “QVQLVESGGGLVQAGGILRLSCAASGSIFNRNAMGWYRQAPGKEREFVADISWSGGSTYYADSVKGRFTISRDNAKNTVYLQMNSLKPEDTAVYYCAAKSTGRWWRAGYVYWGQGTQVTVSS”, the “polyreactivity (PSR sort gate)” value was “high polyreactivity”.

For the sequence “QVQLVESGGGLVQAGGSLRLSCAASGFTFPVYAMGWYRQAPGKERELVAAISRRGGRTYYADSVKGRFTISRDNAKNTVYLQMNSLKPEDTAVYYCAAQSVPYAYRLASYDYWGQGTQVTVSS”, the “polyreactivity (PSR sort gate)” value is recorded as “high polyreactivity”.

With “QVQLVETRGGLVQAGGSLRFSCAPSGRISLIYDMGWYRQAPAKERELVASITWSGDSTYYADSVKGRFTNSRDNAKNTVYLQMNSLKPVDTAVYYCAAVCWTYEYWEWYDYWGQVTQVTVSS”, the “polyreactivity (PSR sort gate)” value is on record as “high polyreactivity”.

With “QVQLVESGGGLVQAGGSLRLSCAASGSTFVYYAMGWYRQAPGKERELVARISSTGSTNYADSVKGRFTISRDNAKNTVYLQMHSLKPEDTAVYYCAARGPSPGHGTYTRTRGQSYYYWGQCTQVTVSS”, the “polyreactivity (PSR sort gate)” value is “high polyreactivity”.

Regarding “QVQLVDSGGGLVQAGGSLRVSCAASGRIFSGHAMGWYRQAPGKVRELVAAITSGGDDTYYADSVKGRFTISRDNAKNTVYLQMNSLKPEDTAVYYCAARYLGYTYYYWGQGTQVSVSS”, the “polyreactivity (PSR sort gate)” value is listed as “low polyreactivity”.

As to “QVQLVESGGGLVQAGGSLRLSCAASGRTFISNVMGWYRQAPGKERELVAAIRSSGRTYYADSVKGRFTISRDNAKNTVYFQMNSLKPEDTAVYYCAAPGGLLGSGYWGQGTQVTVSS”, the “polyreactivity (PSR sort gate)” value is given as “low polyreactivity”.

Take “QVQLVESGGGLVQAGGSLRLSCAASGSILEPYAMGWYRQAPGKERELVAAISSSGGSTRYADSVKGRFTISRDNAKNTVYLQMNSLKPEDTAVYYCAARFRAKFNYWGQGTQVTVSS”: the “polyreactivity (PSR sort gate)” value is recorded as “low polyreactivity”.

Turning to “QVQLVESGGGLVQAGGSLRLSCAASGSTFWGYAMGWYRQAPGKERELVATINQSAGSTYYADSVKGRFTISRDNAKNTVYLQMNSLKPEDTAVYYCAAEARVQFSYDYWGQGTQVTVSS”, the “polyreactivity (PSR sort gate)” value was “low polyreactivity”.

Turning to “QVQHVESGGGLVQAGGSLRLSCAASGIIFLRYGMGWYREAPGKERELVPAISSGGSTNYADSVKGRFTISRDNAKNTVYLQLNSLKPEDTAVYYCAALYGRGRPQDSTFLFDYWGPGTQVTVSS”, the “polyreactivity (PSR sort gate)” value is listed as “low polyreactivity”.

“QVQLVESVGGLVQAGGSLRLSCDASGRTFRVYAMGWYRQAPGKERELVAAITSGDSTYYADSVKGRFTISRDNAKNTFYLQMNSLKPEDTAVYYCAVNTSRYWSGYWGQGTQVTVSS”: the “polyreactivity (PSR sort gate)” value is “high polyreactivity”.

Turning to “QVQLVESGGGLVQAGGSLRLSCAASGSISVRNVMGWYRQAPGKERELVATIRRTGGSTSYADSVKGRFTISRDNAKNTVYVQMNSLKPEDTAVYYCAAVGYTTYRRYDYWGQGTQVTVSS”, the “polyreactivity (PSR sort gate)” value is listed as “low polyreactivity”.

Consider “QVQLVESGGGLVQAGGSLRIICAASGSIFTYNSMGWYREAPGKERELVAAISASGGRTYYADSVKGRFTISRDNAKNTVYLQMNSLKPEDTAVYYCNVLHRSDSGYYYRYDYWGQGTQVTVSS”, for which the “polyreactivity (PSR sort gate)” value is recorded as “high polyreactivity”.

For the sequence “QVQLVESGGGLVQAGGSLRLSCAASGSTFGNYAMGWYRQAPGKERELVATISRSGGSTYYADSVKGRFTISRDNAKNTVYLQMNSLKPEDTAVYYCNRRYYTRKPDYNSWGQGTQVTVSS”, the “polyreactivity (PSR sort gate)” value is “high polyreactivity”.

“QVQLVESGGGLVQAGGSLRLSCAASGSTFNANAMGWYRQAPGKERELVAGISSGGSTYADSVKGRFTISRDNAKNTVYLKMNSLKPEDTAVYYCNADFYSWYPTFYWYDYWGQGTQVTVSS”: the “polyreactivity (PSR sort gate)” value is recorded as “high polyreactivity”.

On to “QVQLVESGGGLVQAGGSLRLSCAASGRTIRSYAMGWYSPAPGKERELVAAITGSGGRTYYADSVKGRFTISRDNATNTVYLQMNSLKPEDTAVYYCAARLRGSYDYWGQGTQVTVSS”, for which the “polyreactivity (PSR sort gate)” value was “high polyreactivity”.

For “QVQLVESGGGLVQAGGSLRISSAASGRTFQTNVMGWYRQAPGKERELVAAISKTGGRTYYADSVKGRFTISRDNAKNTVYLQMNSLNPEDTAVYYCAADSSGYEDYDYWGQGTQVTVSS”, the “polyreactivity (PSR sort gate)” value is “high polyreactivity”.

“QVQLVESGGGLVQAGGSLRLRCAASGFIFAWDAMGWYRQAPGKERELVATISGSGGRTYYADSVKGRFPISRDNAKNTVYLQMISLKPEETAVYYCATRAQGTSWYRTSKYDYWGQGTQVIVSS”: the “polyreactivity (PSR sort gate)” value is “high polyreactivity”.

Regarding “QVQLVESGGGLVHAGGSLSLSCAASGFILGVYAMGWYRQEPGKERELVAAITFTGASTYYADSVKGRFTLSRDNAKNTVYLQMNSLKPEDTAVNYCNKSSAYYRYEYWGQGTQVTVSS”, the “polyreactivity (PSR sort gate)” value is on record as “low polyreactivity”.

For the sequence “QVQLVESGGGLVQAGGSLRLSCAASGSTFAWYDMGWYRQAPGKEREFVAAIDYGGGSTYADSVKGRFTISRDNAKNTVYLQMNSLKPEDTAVYYCNADNWVYLYDYWGQGTQVTVSS”, the “polyreactivity (PSR sort gate)” value is “low polyreactivity”.

Consider “QVQLVESGGGLVQAGGSLRLSCADSGFTFGVYVMGWYRQAPAKERELVAAISRSGGSTYYADSVKGRFTISRDKAKNTVYLQMNCLKPEETAVYYCNADRLVSYRAGEYDYWGQGTQVTVSS”, for which the “polyreactivity (PSR sort gate)” value is on record as “high polyreactivity”.

Take “QDQLVESGGALVQAGGSLRLSCAASGSIFDYNAMGWYRQAPRKDRELVAAISVNGGNTYYADSVKGRFTISRDNAKNTVYLQMNRLKPEDTGVSYCAADSYGGSNYDFWGQGTQVTVSS”: the “polyreactivity (PSR sort gate)” value is “low polyreactivity”.

For “QVQLVESGGGLVQAGGSLRLSCAASGITFGAYAMGWYRQAPGKEMELVAVITRGADTYYADSVKGRFTISRDNAKNTVYLQMNSLKPEDTAVYDCAAEIDLPYYYGSDDDDYWGQGTQVTVSS”, the “polyreactivity (PSR sort gate)” value is “high polyreactivity”.

For the sequence “QVHLVESGGGLVQAGGSLRLSCAASGRILSLYAMGWYRQAPGKERELVASINWSDGSTYYADSVKGRFTISRDNAKNTVYLQMNSLKPEDTAVYYCNVDVSSYVAGYDYWGQGTQVTVSS”, the “polyreactivity (PSR sort gate)” value is “low polyreactivity”.

For “QFQLVESGGGLVQAGGSLRLSCAASGIILAYYAMGWYRKEPGKERELVSSINRSGGSTYYADSVKGRFTISRDNAKNTVYLQMISLKPEYTAVYYCAATNRGVGQRSYRYYYWGQGTQVSVSS”, the “polyreactivity (PSR sort gate)” value is listed as “high polyreactivity”.

Consider “QVQLVESGAGLVQAGGSLRLSCAASGRIFAGYAMGWYRQAPGKEMELVATISSGGSTYYADSVKGRFTISRYNAKNTVYLQMNSLKPEVTAVYYCAADNWVNDGDYCGQGTQVTVSS”, for which the “polyreactivity (PSR sort gate)” value is reported as “low polyreactivity”.

Take “QDQLVESGGGLVQAGGSQRLSCAASGFTFRRYAMGWYRQEPGKERELVAVITTAGSTNYADSVKGRFTISRDNAKNTVYLPMNSLKPEDTAVYYCATDNGTRKGRYDYWGQGTQVTVSS”: the “polyreactivity (PSR sort gate)” value is listed as “low polyreactivity”.

Consider “QVQLVESGGGLVQAGGSLRLSCAASGITFYGYAMGWYRQAPGKERELVAVITSSGSSTYYADSVKGRFTISRDNAKNTVYLQMNSLKPEDTAVYYCNARPGRRSLRSRTYDYWGQGTQVTVSS”, for which the “polyreactivity (PSR sort gate)” value is reported as “high polyreactivity”.

For the sequence “QVQLVESGGGLVQAGGSLRLSCAASGRIFGKYAMGWYRQAPGKERELVAAISRSGASTYYADSVKGRFTISRDNAKNTVYLQMNSLKPEDTAVYYCAAVPPYNYRVRVYYWGQGTQVTVSS”, the “polyreactivity (PSR sort gate)” value is recorded as “high polyreactivity”.
